Tests used:
LNM-R tumors [1] = assay: Cisplatin test, LNM-R xenograft; format: in vivo, NMRI nu/nu mice
Method: (§1) Cisplatin test, 1×10^6 LMN-R cells and 1×10^6 R-SI NTSR1 were subcutaneously inoculated in NMRI nu/nu mice, LMN-R in the left flank and R-SI NTSR1 in the right flank. When tumors generated by LMN-R reached an average volume of 95 mm^3, mice were randomized in 5 groups of 8 to 10 mice. Group 1 was administered with PBS, group 2 with antibody FLp26-8.2 (i.p. every other day, 15 mg/kg) for total of 13 times and group 3 with mouse IgG (i.p. every other day, 15 mg/kg). Group 4 was administered with PBS and cisplatin (1 mg/kg at day 1,3 5 7, 15, 17, and 19) and groups 5 with antibody FLp26-8.2 (i.p. every other day, 15 mg/kg) and cisplatin (1 mg/kg at day 1,3 5 7, 15, 17, and 19). The volume of tumor was measured every other day.

R-SI NTSR1 tumors [2] = assay: Cisplatin test, R-SI NTSR1 xenograft; format: in vivo, NMRI nu/nu mice; settings: cisplatin 1 mg/kg day 1,3,5,7,15,17,19
Method: as §1

[3] = test system: NTS-h cells (MCF-7 overexpressing NTS); assay: Type I collagen invasion assay, MCF-7 cells overexpressing NTS (NTS-h); format: cell-based; settings: NTS-overexpressing clone NTS-h; EGF 100 ng/mL; 7 μg antibody; 48 h
Method: The mouse #4 was selected. 5 clones were obtained. Clones 1-6, 7-12, 8-2, 13-1, and 16-12 were tested. […] The experiments were repeated twice.
(§2) The cell culture insert (8 μm, Beckton Dickinson®) was coated with type I collagen (100 μl/well, 4×10^2 μg/ml, Sigma®) at 37° C. 24 h before the assay. 1 million MCF, NTS-h, Hep 3B, HepR1a, and HepR2b cells were seeded in the insert with 250 μl of serum free medium in presence or absence of 7 μg antibodies FLp26-8.2. Outside the insert, 750 μl medium with 10% FCS was added in the well as chemoattractant. After 48 h of incubation, the non-invading cells and collagen are removed from the upper surface of the membrane by scrubbing with a cotton swab. Invading cells (those adhering to the bottom surface of the membrane) were fixed and stained with the Kwif diff stain kit (Thermo®) and the number of stained cells were counted with an inverted microscope at 200× magnification.

MCF-7 cells = assay: Type I collagen invasion assay, MCF-7 cells; format: cell-based; settings: parental MCF-7; EGF 100 ng/mL; 7 μg antibody; 48 h
Method: as §2

CHO-NTSR1 cells = assay: Cell proliferation of CHO-NTSR1 cells treated with NTS or LNM-R conditioned media; format: cell-based; settings: 2.8 μg antibody, 60% without antibody
Method: Cell Proliferation 20 000 CHO-NTSR1 cells were seeded in 48 well dishes, in 200 ul media 10% with FCS. […] Cells were treated for 40 h in 200 μl media with 2.5% FCS. Cellular proliferation was evaluated by counting using Beckman Coulter's cell counting.

Hep-R1a cells = assay: Collagen invasion assay, Hep-R1a cells (Hep3B transfected with NTSR1); format: cell-based; settings: expressing NTS and NTSR1, exposed to antibody
Method: as §2

Hep-R1b cells = assay: Collagen invasion assay, Hep-R1b cells (Hep3B transfected with NTSR1); format: cell-based; settings: expressing NTS and NTSR1, exposed to antibody
LNM-R tumors [4] = assay: Tumor xenograft, LNM-R lung cancer cells (NTS and NTSR1 expressing), left flank; format: in vivo, NMRI nu/nu mice; settings: 15 mg/kg i.p. every other day
Method: (§3) 1×10^6 LMN-R cells and 1×10^6 R-SI NTSR1 were subcutaneously inoculated in NMRI nu/nu mice, LMN-R in the left flank and R-SI NTSR1 in the right flank. When tumors generated by LMN-R reached an average volume of 40 mm^3, mice were randomized in 2 groups, then administered antibody FLp26-8.2 (i.p. every other day, 15 mg/kg) for total 8 times. PBS was used as the vehicle control. The volume of tumor was measured daily.

R-SI NTSR1 tumors [5] = assay: Tumor xenograft, R-SI NTSR1 cells (LNM-R with NTSR1 sh-RNA), right flank; format: in vivo, NMRI nu/nu mice; settings: 15 mg/kg i.p. every other day; vs PBS; same mice
Method: as §3

MDA-MB231 tumors = assay: Tumor xenograft, MDA-MB 231 breast cancer cells, left flank; format: in vivo, NMRI nu/nu mice; settings: 15 mg/kg i.p. every other day
Method: (§4) 3×10^6 MDA-MB 231 cells and 3×10^6 MDA si2 were subcutaneously inoculated in 100 μl of matrigel the left flank and the right flank of the NMRI nu/nu mice, respectively. When tumors generated by MDA reached an average volume of 50 mm^3, mice were randomized in 2 groups, then administered antibody FLp26-8.2 (i.p. every other day, 15 mg/kg) for total 12 times. PBS was used as the vehicle control.

MDA Si2 tumors = assay: Tumor xenograft, MDA Si2 cells (sh NTSR1), right flank; format: in vivo, NMRI nu/nu mice; settings: 15 mg/kg i.p. every other day, vs PBS
Method: as §4

N.N.[Cl][Pt][Cl] [cisplatin, reference compound]
tumor growth rates (LNM-R tumors [1]; cisplatin 1 mg/kg day 1,3,5,7,15,17,19, IgG 15 mg/kg i.p. every other day, compared to PBS): not altered | tumor size (R-SI NTSR1 tumors [2]): decreased

B1: FLp26-8.2: NTS monoclonal antibody directed against NTS long fragment; VH SEQ ID NO:1, VL SEQ ID NO:5 (antibody, V domains shown)
VH: QIQLVQSGPELKKPGETVKISCKASGYTFTNYGMNWVKQAPGKGLKWMGWITTNTGEPTYAEEFKGRFAFSLETSASTAYLQINNLKNEDTATYFCARRAFAMDYWGQGTSVTVSS
VL: DIVMTQAAPSVPVTPGESVSISCRSSKSLLHSNGNTYLYWFLQRPGQSPQLLIYRMSNLASGVPDRFSGSGSGTAFTLRISRVEAEDVGVYYCMQHLEYPYTFGGGTKLEIK
modifications: Synthetic VH Sequence; Synthetic VL sequence
induction of invasiveness induced or not by EGF [3]: inhibited | induction of invasiveness induced or not by EGF (MCF-7 cells): only in the NTS-overexpressing clones | cellular growth inhibition with antibody added (CHO-NTSR1 cells; CM (LNM-R conditioned media) treated cells): 15% | cellular growth inhibition with antibody added (CHO-NTSR1 cells; NTS treated cells (10^-7 M)): 48% | invasive rate of the cells (Hep-R1a cells): more drastic | invasive rate of the cells (Hep-R1b cells): reduced | tumor size as compared to controls (LNM-R tumors [4]; 8 times, vs PBS): 2.6 times smaller | growth from D1 (LNM-R tumors [4]; PBS 24.68±4.05): 5.92±0.99 fold | doubling time after 16 days of treatment (LNM-R tumors [4]; PBS control 3.43±0.34): 5.96 ± 0.55 days | growth rate (R-SI NTSR1 tumors [5]): not different | size of the tumor (R-SI NTSR1 tumors [5]): not different | tumor growth (MDA-MB231 tumors; 24 days, compared to PBS): strong reduction | growth rate from D1 (MDA-MB231 tumors; PBS 4.4±0.33): 2.1±0.18 fold | doubling time after 24 days of treatment (MDA-MB231 tumors; control 11.63±1): 55.5 ± 32 days | doubling time (MDA Si2 tumors): no difference | growth rate (MDA Si2 tumors): no difference | tumor size (MDA Si2 tumors): no difference | tumor size (LNM-R tumors [1]; FLp26-8.2 15 mg/kg i.p. every other day, with or without cisplatin 1 mg/kg): smaller
